Assay results reported in patent US5777073.
Like-named read-outs stand apart in the source and are kept apart here. One block for each substance: values may come before it.

Key:
[1] = target: CRF receptors on rat anterior pituitary cells (rat)
[2] = target: CRF receptors on rat anterior pituitary cells (rat); remark: listed apart in the source
[3] = target: CRF receptors on rat anterior pituitary cells (rat); remark: listed apart in the source
[4] = target: CRF receptors on rat anterior pituitary cells (rat); remark: listed apart in the source
[5] = target: CRF receptors on rat anterior pituitary cells (rat); remark: listed apart in the source
[6] = target: CRF receptors on rat anterior pituitary cells (rat); remark: listed apart in the source
[7] = target: CRF receptors on rat anterior pituitary cells (rat); remark: listed apart in the source
[8] = target: CRF receptors on rat anterior pituitary cells (rat); remark: listed apart in the source
[9] = target: CRF receptors on rat anterior pituitary cells (rat); remark: listed apart in the source
[10] = target: CRF receptors on rat anterior pituitary cells (rat); remark: listed apart in the source
[11] = target: CRF receptors on rat anterior pituitary cells (rat); remark: listed apart in the source
[12] = target: CRF receptors on rat anterior pituitary cells (rat); remark: listed apart in the source
[13] = target: CRF receptors on rat anterior pituitary cells (rat); remark: listed apart in the source
[14] = target: CRF receptors on rat anterior pituitary cells (rat); remark: listed apart in the source
[15] = target: CRF receptors on rat anterior pituitary cells (rat); remark: listed apart in the source
[16] = target: CRF receptors on rat anterior pituitary cells (rat); remark: listed apart in the source
[17] = target: CRF receptors on rat anterior pituitary cells (rat); remark: listed apart in the source
[18] = target: CRF receptors on rat anterior pituitary cells (rat); remark: listed apart in the source
[19] = target: CRF receptors on rat anterior pituitary cells (rat); remark: listed apart in the source
[20] = target: CRF receptors on rat anterior pituitary cells (rat); remark: listed apart in the source
[21] = target: CRF receptors on rat anterior pituitary cells (rat); remark: listed apart in the source
[22] = target: CRF receptors on rat anterior pituitary cells (rat); remark: listed apart in the source

Substance: (cyclo 29-32) D-Leu^11, Nle^17, Glu^29, D-Ala^31, Lys^32 !-Sauvagine (11-40) (peptide)
in vitro biopotency: inhibition of ACTH secretion (times the Standard) [2]: 15

Substance: (cyclo 30-33) Ac-Asp^9, D-Phe^12, Nle^21, CML^27,37, Glu^30, Lys^33 -r/hCRF(9-41) (peptide)
in vitro biopotency: inhibition of ACTH secretion (times the Standard) [5]: 1.4

Substance: (cyclo 30-33) Ac-D-Phe^12, Nle^21,38, Glu^30, Lys^33 !-r/hCRF(12-41) (peptide)
in vitro biopotency: inhibition of ACTH secretion (times the Standard) [6]: 36.5

Substance: (cyclo 30-33) Ac-D-Phe^12, Nle^21,38, Glu^30, D-His^32, Lys^33 !-r/hCRF(12-41) (peptide)
in vitro biopotency: inhibition of ACTH secretion (times Peptide IV) [10]: 1.24

Substance: (cyclo 30-33) Ac-Thr^11, D-Phe^12, Nle^21,38, Glu^30, D-His^32, Lys^33 !-r/hCRF(11-41) (peptide)
in vitro biopotency: inhibition of ACTH secretion (times Peptide IV) [11]: 3.08

Substance: (cyclo 30-33) D-Phe^12, Nle^18,21, Glu^30, Lys^33 !-Sucker Urotensin I(12-41) (peptide)
in vitro biopotency: inhibition of ACTH secretion (times Peptide IV) [13]: 1.32

Substance: (bicyclo 20-23, 30-33) D-Phe^12, Nle^21,38, Lys^23,33, Glu^30 !-r/hCRF(12-41) (peptide)
in vitro biopotency: inhibition of ACTH secretion (times the Standard) [17]: 8.3

Substance: (cyclo 30-33) Ac-Thr^11, D-Phe^12, CML^18,27, Nle^21,38, Glu^30, D-His^32, Lys^33 !-r/hCRF(11-41) (peptide)
in vitro biopotency: inhibition of ACTH secretion (times Peptide IV) [20]: 1.94

Substance: (cyclo 30-33) Ac-D-Phe^12, Nle^21,38, CML^27, Glu^30, Lys^33 !-r/hCRF(12-41) (peptide)
in vitro biopotency: inhibition of ACTH secretion (times Peptide IV) [21]: 1.65

Results, then the substance that gave them:

in vitro biopotency: inhibition of ACTH secretion (times Peptide IV) [1]: 1.26
Substance: (cyclo 30-33) D-Phe^12, Nle^21,38, CML^27, Glu^30, D-His^32, Lys^33 !-r/hCRF(11-41) (peptide)

in vitro biopotency: inhibition of ACTH secretion (times the Standard) [3]: 13
Substance: (cyclo 30-33) Ac-Asp^9, D-Phe^12, CML^18,27, Nle^21,38, Glu^30, Lys^33 -r/hCRF(9-41) (peptide)

in vitro biopotency: inhibition of ACTH secretion (times the Standard) [4]: 26
Substance: (cyclo 29-33) D-Phe^12, Nle^21,38, Glu^29, D-His^32, Lys^33 -r/hCRF(12-41) (peptide)

in vitro biopotency: inhibition of ACTH secretion (times Peptide IV) [7]: 1.2
Substance: (cyclo 30-33) Ac-Asp^9, D-Phe^12, Nle^21,38, CML^27, Glu^30, Lys^33 !-r/hCRF(9-41) (peptide)

in vitro biopotency: inhibition of ACTH secretion (times the Standard) [6]: 172
Substance: (cyclo 30-33) Ac-Asp^9, D-Phe^12, Nle^21,38, Glu^30, Lys^33 !-r/hCRF(9-41) (peptide)

in vitro biopotency: inhibition of ACTH secretion (times the Standard) [8]: 49
Substance: (cyclo 30-33) D-Tyr^12, Glu^13, Lys^17,33, Nle^21,38, Glu^30, Asn^32, Arg^36 !-r/hCRF(12-41) (peptide)

in vitro biopotency: inhibition of ACTH secretion (times the Standard) [9]: 20.3
Substance: (cyclo 30-33) D-Phe^12, CML^15, Nle^21,38, Glu^30, D-His^32, Lys^33 !-r/hCRF(12-41) (peptide)

in vitro biopotency: inhibition of ACTH secretion (times the Standard) [12]: 31.6
Substance: (cyclo 30-33) D-Phe^12, Nle^21,38, Glu^30, Lys^33 !-r/hCRF(10-41) (peptide)

in vitro biopotency: inhibition of ACTH secretion (times the Standard) [14]: 33.8
Substance: (cyclo 30-33) D-Phe^12, Nle^21,38, Glu^30, Lys^33 !-r/hCRF(9-41) (peptide)

in vitro biopotency: inhibition of ACTH secretion (times the Standard) [15]: 10
Substance: (cyclo 30-33) D-Phe^12, Nle^21,38, Glu^30, D-Glu^32, Lys^33 !-r/hCRF(12-41) (peptide)

in vitro biopotency: inhibition of ACTH secretion (times Peptide IV) [16]: 1.11
Substance: (cyclo 30-33) Ac-Thr^11, D-Phe^12, CML^15,27, Nle^21,38, Glu^30, D-His^32, Lys^33 -r/hCRF(11-41) (peptide)

in vitro biopotency: inhibition of ACTH secretion (times the Standard) [18]: 60
Substance: (cyclo 30-33) D-Phe^12, Nle^21,38, Glu^30, D-Arg^32, Lys^33 !-r/hCRF(12-41) (peptide)

in vitro biopotency: inhibition of ACTH secretion (times the Standard) [19]: 15
Substance: (cyclo 30-33) D-Phe^12, CML^14, Nle^21,38, Glu^30, D-His^32, Lys^33 !-r/hCRF(12-41) (peptide)

in vitro biopotency: inhibition of ACTH secretion (times the Standard) [22]: 79
Substance: (cyclo 30-33) D-Tyr^12, Nle^21,38, Glu^30, Asn^32, Lys^33, Arg^36 !-r/hCRF (12-41) (peptide)
